Data on six molecules can be found in article PMC11551741 (Nucleic Acids Research, 2024).

Numbering of substitutions follows the chain as printed. Non-standard residues stand in square brackets, D forms with d. pS = N[C@@H](COP(=O)(O)O)C(=O)O

Data set [1] has as its target RAD18 peptide 437-452 (Homo sapiens) (UniProt Q9NS91). In words: ITC. Conditions: cited from earlier work.
A further data set addresses SLF1 tBRCT, 6-208 (UniProt Q9BQI6). In words: thermal melt (SYPRO Orange) of SLF1tBRCT.
In data set [2] the target is unmodified nucleosome core particle (H2A, H2B, H3.1, H4 and 147 bp Widom 601 DNA) (human) (UniProt P0C0S8). In words: native gel or EMSA; 10 nM nucleosome core particles with rising SLF1^ARD or SLF1^ARD_4A, room temperature, 20 mins; Diamond DNA stain.
Data set [3] addresses T1, SLF1^tBRCT (tandem BRCT domain of SLF1, residues 6-208) (human, UniProt Q9BQI6 6-208).
T1 construct: SLF1 (SMC5-SMC6 complex localization factor 1), human, tandem BRCT domain, residues 6-208; pHAT4 construct; also called wild-type SLF1^tBRCT; not shown: His-tag, N-terminal, cleaved
T1 sequence (looked up): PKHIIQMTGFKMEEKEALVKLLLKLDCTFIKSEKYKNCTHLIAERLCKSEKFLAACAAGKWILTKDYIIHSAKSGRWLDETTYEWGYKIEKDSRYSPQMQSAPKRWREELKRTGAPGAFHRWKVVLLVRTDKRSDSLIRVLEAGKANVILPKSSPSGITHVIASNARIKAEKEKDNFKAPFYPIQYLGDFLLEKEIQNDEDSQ
In words: thermal melt (SYPRO Orange); 10 μM SLF1^tBRCT proteins with 200 μM RAD18 peptides; 25-95°C; Tm of SLF1^tBRCT. The note with it: both partners purified.

The target in a further data set is T2, SLF1 ARD (Homo sapiens, UniProt Q9BQI6 802-934).
T2 sequence: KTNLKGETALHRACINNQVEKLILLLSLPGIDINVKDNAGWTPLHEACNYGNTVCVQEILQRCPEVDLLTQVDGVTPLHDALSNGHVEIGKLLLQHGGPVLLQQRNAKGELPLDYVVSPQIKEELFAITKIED
In words: EMSA; no shift; DNA EMSA: 40 mM Tris pH 7.5, 100 mM KCl, 0.2 mM DTT, 10% glycerol, 20 ug/ml BSA, 10 nM DNA, 4 C 30 min; NCP EMSA: 10 nM NCP, room temperature 20 min; FP: 20 mM. The note with it: protein: recombinant; tags: none (His-tag cleaved by TEV); label: 5' 6-FAM on strand 1; blunt. (Mobility shift assays separate free from complexed probe on a gel.)

In a further data set the target is BRCA1 tBRCT (UniProt P38398 1646-1859). Briefly: EMSA; no interaction observed; DNA EMSA: 40 mM Tris pH 7.5, 100 mM KCl, 0.2 mM DTT, 10% glycerol, 20 ug/ml BSA, 10 nM DNA, 4 C 30 min; NCP EMSA: 10 nM NCP, room temperature 20 min; FP: 20 mM. The note with it: protein: recombinant; tags: N-terminal non-cleavable His-tag; label: 5' 6-FAM on strand 1; blunt.
Data set [4] concerns the target T3, SLF1 tBRCT (Homo sapiens, UniProt Q9BQI6 6-208).
T3 sequence: T1 sequence (looked up)
In words: fluorescence polarization; 20 mM Tris pH 8.0, 150 mM NaCl, 5% glycerol, room temperature; DNA EMSA: 40 mM Tris pH 7.5, 100 mM KCl, 0.2 mM DTT, 10% glycerol, 20 ug/ml BSA, 10 nM DNA, 4 C 30 min; NCP EMSA: 10 nM NCP, room temperature 20 min; FP: 20 mM. Conditions: protein: recombinant; tags: none (His-tag cleaved by TEV); label: 5' 6-FAM on strand 1; blunt.

Data set [5] addresses T3, SLF1 tBRCT. In words: thermal melt; 30 uM DNA, 10 uM protein; DNA EMSA: 40 mM Tris pH 7.5, 100 mM KCl, 0.2 mM DTT, 10% glycerol, 20 ug/ml BSA, 10 nM DNA, 4 C 30 min; NCP EMSA: 10 nM NCP, room temperature 20 min; FP: 20 mM. Conditions: protein: recombinant; tags: none (His-tag cleaved by TEV); blunt.
A further data set deals with T4, SLF1 tBRCT K56A (Homo sapiens, UniProt Q9BQI6 6-208, K56A).
T4 sequence: T1 sequence (looked up) with K51A
The data set is described as above. Conditions: protein: recombinant; tags: none (His-tag cleaved by TEV); blunt.

The next data set concerns the target T5, SLF1 tBRCT T13A (Homo sapiens, UniProt Q9BQI6 6-208, T13A).
T5 sequence: T1 sequence (looked up) with T8A
Described as above. The note with it: protein: recombinant; tags: none (His-tag cleaved by TEV); blunt.

Chain of SLF1 tBRCT, 6-208 (Q9BQI6 whole entry, looked up, tested part not stated): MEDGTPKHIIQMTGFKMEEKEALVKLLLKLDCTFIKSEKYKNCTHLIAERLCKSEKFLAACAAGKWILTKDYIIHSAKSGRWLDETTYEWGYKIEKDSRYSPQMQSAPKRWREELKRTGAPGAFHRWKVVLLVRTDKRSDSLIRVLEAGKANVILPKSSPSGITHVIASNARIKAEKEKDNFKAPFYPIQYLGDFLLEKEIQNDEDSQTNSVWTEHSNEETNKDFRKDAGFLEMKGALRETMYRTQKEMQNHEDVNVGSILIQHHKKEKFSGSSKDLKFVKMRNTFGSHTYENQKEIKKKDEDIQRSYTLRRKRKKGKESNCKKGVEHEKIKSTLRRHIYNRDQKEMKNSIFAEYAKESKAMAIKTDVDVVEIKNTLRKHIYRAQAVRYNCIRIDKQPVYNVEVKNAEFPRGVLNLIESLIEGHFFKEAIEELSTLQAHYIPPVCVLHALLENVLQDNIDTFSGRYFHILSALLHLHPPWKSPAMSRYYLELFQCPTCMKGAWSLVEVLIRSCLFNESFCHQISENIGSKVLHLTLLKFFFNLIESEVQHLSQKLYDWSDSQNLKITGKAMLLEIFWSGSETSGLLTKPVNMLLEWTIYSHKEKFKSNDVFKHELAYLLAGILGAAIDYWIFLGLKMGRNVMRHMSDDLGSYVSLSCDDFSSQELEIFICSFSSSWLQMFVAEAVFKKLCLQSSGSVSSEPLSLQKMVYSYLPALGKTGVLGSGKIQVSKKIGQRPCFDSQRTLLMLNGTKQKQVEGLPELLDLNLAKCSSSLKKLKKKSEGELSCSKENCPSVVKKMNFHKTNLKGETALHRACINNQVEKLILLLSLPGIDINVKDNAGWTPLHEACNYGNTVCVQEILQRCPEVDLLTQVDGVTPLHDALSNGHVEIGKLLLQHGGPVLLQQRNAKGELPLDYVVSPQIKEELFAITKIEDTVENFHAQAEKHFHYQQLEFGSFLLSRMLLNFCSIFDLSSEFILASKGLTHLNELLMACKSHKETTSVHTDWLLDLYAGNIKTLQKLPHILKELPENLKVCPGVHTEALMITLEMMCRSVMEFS
Chain of BRCA1 tBRCT (P38398 1646-1859): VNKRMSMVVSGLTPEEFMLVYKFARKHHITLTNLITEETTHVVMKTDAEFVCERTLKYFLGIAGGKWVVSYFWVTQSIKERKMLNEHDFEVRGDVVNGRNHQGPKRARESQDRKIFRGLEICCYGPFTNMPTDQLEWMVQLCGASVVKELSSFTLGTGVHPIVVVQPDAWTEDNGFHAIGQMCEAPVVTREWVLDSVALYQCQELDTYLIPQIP

Usually Kd stands for a measure of binding affinity in units of concentration. For SLF1 tBRCT (from UniProt Q9BQI6), in data set [1], the Kd was 12 nM.
For the molecule “RAD18 441-446 (from UniProt Q9NS91) pS442/pS444 peptide”, the “other: ΔTm vs SLF1tBRCT alone” value with SLF1 tBRCT, 6-208 (reference: pS442 peptide, sites S444) was “stronger; reference 0.8”; with SLF1 tBRCT, 6-208 (reference: pS444 peptide, sites S442) it was “stronger; reference 0.4”; in the data set with SLF1 tBRCT, 6-208 (reference: unphosphorylated peptide SSSSDI, sites S442,S444) it was 3.7 °C.
“SLF1^ARD (ankyrin repeat domain of SLF1, residues 802-934), His-tag cleaved (from UniProt Q9BQI6 802-934) (domain or fragment)”: the affinity in [2] was in the range of 1 to 5 µM.

B1: RAD18(442p,444p)^peptide (S(pS)S(pS)DI) (peptide)
peptide: Ac-S[pS]S[pS]DI-NH2
SMILES: CC[C@H](C)[C@H](NC(=O)[C@H](CC(=O)O)NC(=O)[C@H](COP(=O)(O)O)NC(=O)[C@H](CO)NC(=O)[C@H](COP(=O)(O)O)NC(=O)[C@H](CO)NC(C)=O)C(N)=O
notes: RAD18, human, residues S441 to I446; also called double phosphorylated RAD18 peptide; double-phosphorylated hexapeptide; source: synthetic peptide (Biomatik)
In general, ΔTm refers to the change in melting temperature against a reference sample. For the molecule B1, the shift in melting temperature (ΔTm) in [3] worked out at 3.7 °C.

B2: 50 bp DNA, 6-FAM (dsDNA)
DNA 1: TAAATGCCAATGCTGCTGATACGTACTCGGACTGATTCGGAACTGTAACG
DNA 2: CGTTACAGTTCCGAATCAGTCCGAGTACGTATCAGCAGCATTGGCATTTA
In the case of B2, the binding result in the data set with SLF1 ARD and with BRCA1 tBRCT was “no binding” in each case. The Kd with SLF1 tBRCT [4] turned out to be 430 nM.

B3: 50 bp DNA, unlabelled (dsDNA)
DNA 1: B2 DNA 1
DNA 2: B2 DNA 2
B3: the binding signal with SLF1 tBRCT [5] is 7.1 C (delta Tm); in the data set with SLF1 tBRCT K56A it was 6.4 C (delta Tm); with SLF1 tBRCT T13A it was 6.9 C (delta Tm).
